Measured values taken from paper PMC7060239.

Molecular target: human DNMT1 RFTS domain, residues 351–600 (human) (UniProt P26358)
Assay: ITC; hRFTS and ubiquitylated hPAF15_(2-30) analogs; VP-ITC; 10 mM HEPES-NaOH (pH 7.5), 150 mM NaCl, 10 μM zinc acetate; one-site model; c value 10,000 for hPAF15_(2-30)Ub2

Sequence of human DNMT1 RFTS domain, residues 351–600 (human) (P26358 351-600): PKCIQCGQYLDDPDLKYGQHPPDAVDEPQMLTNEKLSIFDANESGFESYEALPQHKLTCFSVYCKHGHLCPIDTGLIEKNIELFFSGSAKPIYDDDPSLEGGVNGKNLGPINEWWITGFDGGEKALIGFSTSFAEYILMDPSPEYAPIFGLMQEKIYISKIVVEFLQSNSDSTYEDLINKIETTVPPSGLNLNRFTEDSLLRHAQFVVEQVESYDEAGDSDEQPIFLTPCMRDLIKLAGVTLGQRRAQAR

Row | Substance | Kd | stoichiometry N
1 | hPAF15_(2-30)K15Ub, disulfide-linked mono-ubiquitylated analog (from UniProt Q15004 2-30) | 1200 nM | –
2 | hPAF15_(2-30)Ub2, disulfide-linked dual mono-ubiquitylated analog of human PAF15 (residues 2–30) (from UniProt Q15004 2-30) | 1.4 nM | 1
